Patent US20200283478A1 (Genentech, published 2020)
Ends that are not written are not given here. * marks the point of attachment. Pentanoyl = CCCCC(=O)*

B1: Compound 123 (peptide)
peptide: {n‑PrC(O)}-WNLVRIGLLR-NH2
B2: Compound 162 (peptide)
peptide: WNLVRIGLTR
modifications: also: further groups not given here
notes: Structure printed only as a drawing
B3: Compound 166 (peptide)
peptide: WNLVRIGLTR
modifications: also: further groups not given here
notes: as for B2
B4: Compound 182 (peptide)
peptide: WNLVRIGTLR
modifications: also: further groups not given here
notes: as for B2
B5: Compound 181 (peptide)
peptide: Pentanoyl-WNLVRIGLSR-NH2
SMILES: CCCCC(=O)N[C@@H](Cc1c[nH]c2ccccc12)C(=O)N[C@@H](CC(N)=O)C(=O)N[C@@H](CC(C)C)C(=O)N[C@H](C(=O)N[C@@H](CCCNC(=N)N)C(=O)N[C@H](C(=O)NCC(=O)N[C@@H](CC(C)C)C(=O)N[C@@H](CO)C(=O)N[C@@H](CCCNC(=N)N)C(N)=O)[C@@H](C)CC)C(C)C
B6: Compound 170 (peptide)
peptide: WNLVRIGLTR
modifications: also: further groups not given here
notes: as for B2
B7: Compound 169 (peptide)
peptide: WNLVRIGLTR
modifications: also: further groups not given here
notes: as for B2
B8: Compound 159 (peptide)
peptide: Pentanoyl-WNLKRIGLLR-NH2
SMILES: CCCCC(=O)N[C@@H](Cc1c[nH]c2ccccc12)C(=O)N[C@@H](CC(N)=O)C(=O)N[C@@H](CC(C)C)C(=O)N[C@@H](CCCCN)C(=O)N[C@@H](CCCNC(=N)N)C(=O)N[C@H](C(=O)NCC(=O)N[C@@H](CC(C)C)C(=O)N[C@@H](CC(C)C)C(=O)N[C@@H](CCCNC(=N)N)C(N)=O)[C@@H](C)CC
B9: Compound 178 (peptide)
peptide: Pentanoyl-WNLVRIGLDR-NH2
SMILES: CCCCC(=O)N[C@@H](Cc1c[nH]c2ccccc12)C(=O)N[C@@H](CC(N)=O)C(=O)N[C@@H](CC(C)C)C(=O)N[C@H](C(=O)N[C@@H](CCCNC(=N)N)C(=O)N[C@H](C(=O)NCC(=O)N[C@@H](CC(C)C)C(=O)N[C@@H](CC(=O)O)C(=O)N[C@@H](CCCNC(=N)N)C(N)=O)[C@@H](C)CC)C(C)C
B10: Compound 188 (peptide)
peptide: WNLVRIGLTR
modifications: also: further groups not given here
notes: as for B2
B11: Compound 164 (peptide)
peptide: WNLVRIGLTR
modifications: also: further groups not given here
notes: as for B2
B12: Compound 180 (peptide)
peptide: Pentanoyl-WNLVRIGLAR-NH2
SMILES: CCCCC(=O)N[C@@H](Cc1c[nH]c2ccccc12)C(=O)N[C@@H](CC(N)=O)C(=O)N[C@@H](CC(C)C)C(=O)N[C@H](C(=O)N[C@@H](CCCNC(=N)N)C(=O)N[C@H](C(=O)NCC(=O)N[C@@H](CC(C)C)C(=O)N[C@@H](C)C(=O)N[C@@H](CCCNC(=N)N)C(N)=O)[C@@H](C)CC)C(C)C
B13: Compound 167 (peptide)
peptide: WNLVRIGLTR
modifications: also: further groups not given here
notes: as for B2
B14: Compound 168 (peptide)
peptide: WNLVRIGLTR
modifications: also: further groups not given here
notes: as for B2
B15: Compound 165 (peptide)
peptide: WNLVRIGLTR
modifications: also: further groups not given here
notes: as for B2
B16: Compound 183 (peptide)
peptide: WNLVRIGTLR
modifications: also: further groups not given here
notes: as for B2
B17: Compound 177 (peptide)
peptide: Pentanoyl-WNLVRIGLER-NH2
SMILES: CCCCC(=O)N[C@@H](Cc1c[nH]c2ccccc12)C(=O)N[C@@H](CC(N)=O)C(=O)N[C@@H](CC(C)C)C(=O)N[C@H](C(=O)N[C@@H](CCCNC(=N)N)C(=O)N[C@H](C(=O)NCC(=O)N[C@@H](CC(C)C)C(=O)N[C@@H](CCC(=O)O)C(=O)N[C@@H](CCCNC(=N)N)C(N)=O)[C@@H](C)CC)C(C)C
B18: Compound 179 (peptide)
peptide: Pentanoyl-WNLVRIGLGR-NH2
SMILES: CCCCC(=O)N[C@@H](Cc1c[nH]c2ccccc12)C(=O)N[C@@H](CC(N)=O)C(=O)N[C@@H](CC(C)C)C(=O)N[C@H](C(=O)N[C@@H](CCCNC(=N)N)C(=O)N[C@H](C(=O)NCC(=O)N[C@@H](CC(C)C)C(=O)NCC(=O)N[C@@H](CCCNC(=N)N)C(N)=O)[C@@H](C)CC)C(C)C
B19: Compound 161 (peptide)
peptide: WNLVRIGLTR
modifications: also: further groups not given here
notes: as for B2
B20: Compound 184 (peptide)
peptide: WNLVRIGTLR
modifications: also: further groups not given here
notes: as for B2
B21: Compound 163 (peptide)
peptide: WNLVRIGLTR
modifications: also: further groups not given here
notes: as for B2
B22: Compound 176 (peptide)
peptide: Pentanoyl-WNLVRIGLTR
B23: Compound 172 (peptide)
peptide: WNLVRIGLTR
modifications: also: further groups not given here
notes: as for B2
B24: Compound 171 (peptide)
peptide: WNLVRIGLTR
modifications: also: further groups not given here
notes: as for B2
B25: Compound 185 (peptide)
peptide: WNLVRIGTLR
modifications: also: further groups not given here
notes: as for B2
B26: Compound 173 (peptide)
peptide: WNLVRIGLTR
modifications: also: further groups not given here
notes: as for B2
B27: Compound 122 (peptide)
peptide: Ac-SGDLMPWNLVRIGLLR-NH2

Experiments:
[1] = molecular target: T1, His-tagged, full-length PCSK9 (human, UniProt Q8NBP7 31-692); assay: TR-FRET competition; His-PCSK9, competitor EGF(A)-Fc
T1 construct: The secreted protein is autocleaved into a prodomain and a catalytic/Cys-rich chain that starts at S153; also called His-PCSK9
T1 sequence (Q8NBP7 other isoform, or with tags, fused parts or gaps limits assumed): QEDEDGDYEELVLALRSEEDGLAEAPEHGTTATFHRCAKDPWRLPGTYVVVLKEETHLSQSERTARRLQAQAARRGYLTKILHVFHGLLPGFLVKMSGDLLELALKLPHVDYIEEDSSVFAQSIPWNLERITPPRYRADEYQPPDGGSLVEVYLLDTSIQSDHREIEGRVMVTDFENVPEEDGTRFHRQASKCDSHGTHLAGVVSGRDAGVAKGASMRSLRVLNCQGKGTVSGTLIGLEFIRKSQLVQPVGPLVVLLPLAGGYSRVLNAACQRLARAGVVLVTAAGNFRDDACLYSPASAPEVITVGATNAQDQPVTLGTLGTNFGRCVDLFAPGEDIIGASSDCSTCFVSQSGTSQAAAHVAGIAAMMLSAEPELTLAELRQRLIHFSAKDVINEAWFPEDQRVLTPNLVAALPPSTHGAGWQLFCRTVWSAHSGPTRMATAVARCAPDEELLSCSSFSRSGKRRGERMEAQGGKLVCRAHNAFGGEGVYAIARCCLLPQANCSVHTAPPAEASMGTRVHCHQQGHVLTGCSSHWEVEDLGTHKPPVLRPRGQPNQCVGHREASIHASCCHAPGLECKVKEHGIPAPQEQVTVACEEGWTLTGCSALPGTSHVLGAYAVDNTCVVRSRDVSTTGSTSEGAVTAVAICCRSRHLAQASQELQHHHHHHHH

[2] = molecular target: T2, His-tagged PCSK9Δhelix (human, UniProt Q8NBP7 31-152; Q8NBP7 168-692); assay: TR-FRET competition; His-PCSK9Δhelix, competitor Ab20
T2 construct: Construct M1-Q692 with engineered TEV site, cut by TEV protease; new N-terminus of the catalytic domain is S-A168; also called His-PCSK9Δhelix
T2 sequence (Q8NBP7 31-152, stated change not applied, chain 1 of 2): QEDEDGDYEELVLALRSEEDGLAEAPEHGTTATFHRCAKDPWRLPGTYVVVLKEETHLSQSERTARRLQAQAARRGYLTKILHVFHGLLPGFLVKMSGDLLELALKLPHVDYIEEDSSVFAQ
T2 sequence (Q8NBP7 other isoform, or with tags, fused parts or gaps mutant, chain 2 of 2): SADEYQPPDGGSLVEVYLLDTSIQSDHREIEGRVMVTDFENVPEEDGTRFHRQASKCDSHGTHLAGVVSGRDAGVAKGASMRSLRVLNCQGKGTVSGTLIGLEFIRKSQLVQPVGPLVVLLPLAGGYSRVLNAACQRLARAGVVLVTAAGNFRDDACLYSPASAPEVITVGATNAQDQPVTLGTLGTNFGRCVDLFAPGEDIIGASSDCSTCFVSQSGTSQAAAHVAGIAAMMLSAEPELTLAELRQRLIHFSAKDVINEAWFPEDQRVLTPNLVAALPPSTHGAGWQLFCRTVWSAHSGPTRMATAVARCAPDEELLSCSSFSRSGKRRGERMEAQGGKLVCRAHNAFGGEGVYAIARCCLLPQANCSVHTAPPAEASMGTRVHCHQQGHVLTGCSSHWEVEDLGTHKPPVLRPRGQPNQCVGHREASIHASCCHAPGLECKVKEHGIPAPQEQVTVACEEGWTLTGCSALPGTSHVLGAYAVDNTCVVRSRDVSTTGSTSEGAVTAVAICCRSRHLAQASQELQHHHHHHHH
Method: Signal generation in the PCSK9 binding assays was dependent upon the binding interaction to bring into close proximity the His-tag on the PCSK9 and the Fc-tag on the ligand. Anti-His-APC was bound to the His-tag, and anti-Fc-europium was bound to the Fc-tag.
Compounds were solubilized and dilutions were prepared in DMSO. […] The plate was centrifuged to mix the well contents and allowed to incubate for 30 min. […] The normalized TR-FRET ratios were plotted as a function of the compound concentrations, and the IC₅₀ values were determined using a 4-parameter logistic regression.

Binder | IC50 [1] [µM] | IC50 [2] [µM]
B1 | ≥ 50 | 18
B2 | ≥ 50 | 37
B3 | ≥ 50 | 5.9
B4 | 14 | 4
B5 | ≥ 50 | 8.9
B6 | ≥ 50 | 3.1
B7 | ≥ 50 | 6.8
B8 | ≥ 50 | 6.6
B9 | ≥ 50 | 18
B10 | 22 | 7.6
B11 | ≥ 50 | 12
B12 | ≥ 50 | 12
B13 | ≥ 50 | 43
B14 | ≥ 50 | 7.8
B15 | ≥ 50 | 18
B16 | 18 | 2.5
B17 | ≥ 50 | 35
B18 | ≥ 50 | 11
B19 | ≥ 50 | 5
B20 | 19 | 12
B21 | ≥ 50 | 37
B22 | ≥ 50 | 18
B23 | ≥ 50 | 8.5
B24 | ≥ 50 | 7.7
B25 | 5.7 | 0.39
B26 | ≥ 50 | 9.8
B27 |  | 5.6
